Residue numbers refer to the chain shown, from its start.
T1: recombinant human CD27/TNFRSF7/Fc chimera (R&D Systems Catalog No. 382-CD) (UniProt P26842 20-191)
T1 chain: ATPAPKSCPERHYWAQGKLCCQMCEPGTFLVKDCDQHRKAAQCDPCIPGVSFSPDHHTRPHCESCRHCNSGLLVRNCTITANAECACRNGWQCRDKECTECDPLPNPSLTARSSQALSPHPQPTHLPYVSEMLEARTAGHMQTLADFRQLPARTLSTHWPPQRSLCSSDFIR

B1: 3H8-1B11 (antibody, V domains shown)
VH: EVQLVESGGGLVQPGGSLRLSCAASGFTFSSYWMAWVRQAPGKGLEWLGNIKQDGSEKYYVDSVKGRFTISRDNAKNSLYLQMNSLRAEDTAVYYCVRELGMDWYFDLWGRGTLVTVSS
VL: EIVLTQSPATLSLSPGERATLSCRASQSVDSYLAWYQQKPGQAPRLLIYDASNRATGIPARFSGSGSGTDFTLTISNLEPEDFAVYYCQQRSNWPPTFGQGTKVEIK
B2: 2C2-1A10 (antibody, V domains shown)
VH: QVQLVESGGGVVQPGRSLRLSCAASGFTFSSYDIHWVRQAPGKGLEWVAVIWNDGSNKYYADSVKGRFTISRDNSTNSLFLQMNSLRAEDTAVYYCVGGTADLEHWDQGTLVTVSS
VL: DIQMTQSPSSLSASVGDRVTITCRASQGISSWLAWYQQKPEKAPKSLIYAASSLQSGVPSRFSGSGSGTDFTLTISSLQPEDFATYYCQQYNSYPLTFGGGTKVEIK
B3: 3A10-G10 (antibody, V domains shown)
VH: QVQLVESGGGVVQPGRSLRLSCAASGFTFSHYGMHWVRQAPGKGPEWVAIIWYDGSNKYYADSVKGRFTISRDNSKNTLDLQMNSLRAEDTAVYYCARDGWTTMVRGLNVFDIWGQGTMVTVSS
VL: B2 VL with G28D, L96P, G100Q, K103R, V104L
B4: 3H12-1E12 (antibody, V domains shown)
VH: QVQLVESGGGVVQPGRSLRLSCATSGFTFSSYDMHWVRQAPGKGLEWVAVIWYDGSNKYYADSVKGRFTISRDNSKNTLYLQMNSLGDEDTAVYYCARGSGNWGFFDYWGQGTLVTVSS
VL: B2 VL with S31R, S93T, L96R, G100Q
B5: 2G9-1D11 (antibody, V domains shown)
VH: B2 VH with F29L, Y32H, G98R
VL: B2 VL
B6: 1H8-B4 (antibody, V domains shown)
VH: QVQLVESGGGVVQPGRSLRLSCAASGFTFNIYDMHWVRQAPGKGLEWVAVIWYDGSNQYYADSVKGRFTISRDNSKNTLYLQMNILRAEDTAVYYCARGTHWGYFDYWGQGTLVTVSS
VL: B2 VL with S53N, L96R, G100Q
B7: 1F5-1H5 (antibody, V domains shown)
VH: B4 VH with T24A, G87R, D88A
VL: B2 VL with S31R, S93T, L96R, G100Q
B8: 1G5-1B9 (antibody, V domains shown)
VH: QVQLVESGGGVVQPGRSLRLSCAASGFSFSSYGMHWVRQAPGKGLEWVALLWYDGSHKDFADSVKGRFTISRDNSKNTLDLQMNSLRAEDTAVYYCAREGLAVPGHWYFDLWGRGTLVTVSS
VL: AIQLTQSPSSLSASVGDRVTITCRASQGISSALAWYQQKPGKAPKLLIYDASSLESGVPSRFSGSGSGTDFTLTISSLQPEDFATYYCQQFNTYPRTFGQGTKVEIK

Biological target: T1, recombinant human CD27/TNFRSF7/Fc …
Assay: Biacore SPR

Kd [nM]	Binder
0.0556	B1
0.0841	B2
0.202	B3
0.358	B4
0.00153	B5
0.158	B6
0.186	B7
0.402	B8

Biological target: T1, recombinant human CD27/TNFRSF7/Fc …
Assay: Biacore SPR
Remark: another data set of the same source

Ka [M⁻¹]	Binder
1.81e+10	B1
1.2e+10	B2
4.97e+09	B3
2.8e+09	B4
6.6e+11	B5
6.39e+09	B6
5.37e+09	B7
2.55e+09	B8

— patent publication US20120213771A1 (published 2012)
